± gives the standard deviation.
Assay: protein stability index of a GFP-peptide fusion (GPS, HEK-293T) (PSI 1-6); higher = more stable
Details: c terminus: a fixed tail appended
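Also: 24-mer peptide tiles fused after GFP, lentivirally expressed, FACS-sorted into six equal bins by GFP/DsRed ratio, decoded by Illumina sequencing, PSI is the read-weighted mean bin number.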

Sequence | protein stability index (treatment: DMSO) | protein stability index (treatment: MLN4924 1 uM, 8 h)
LPLPEQIHKASATIIEPAGESDNP [INTS4] | 5.5 ± 0.26 | 5.49 ± 0.19
HLNETVKAPDIECVLRCSVLEIEQ [FEM1B] | 3.07 ± 0.49 | 3.13 ± 0.44
CGSRRERCGYRLVRRQRSADEQLH [ESR2] | 2.79 ± 0.36 | 2.93 ± 0.29
QQPPQQQPSQQQQPPPQEEPGTPS [KLHL14] | 5.67 ± 0.13 | 5.61 ± 0.4
LERASATLQDLVFDECGITDDQLL [PRAME] | 4.65 ± 0.36 | 4.71 ± 0.35
MAAWGKKHAGKDPVRDECEERNRF [FAM9B] | 4.59 ± 0.23 | 4.62 ± 0.34
KTPPSSCDSTNAAIAKQALKKPIK [KMT5A] | 5.11 ± 0.12 | 5.15 ± 0.3
YLGSAYHASKCEFLANLHITALLN [DUSP5] | 2.58 ± 0.69 | 2.61 ± 0.47
VAPATWSAGVPPSAPLQGAVPPTS [SNAP91] | 4.38 ± 0.25 | 4.39 ± 0.29
APPGSLVTKVTAVDADAGHNAWLS [PCDHGC5] | 3.848 ± 0.025 | 4 ± 0.19
HDTKDQSPSRAPGLRQRASNKVQD [HMOX1] | 5.58 ± 0.24 | 5.29 ± 0.14
RNERSIQEKLQVLMAEGLLPAVKV [SMG5] | 2.69 ± 0.26 | 2.6 ± 0.22
NTGKTYFFVANKYWRYDEYKRSMD [MMP1] | 1.98 ± 0.17 | 2.2 ± 0.19
PLELMRTKLQAQHVSYRELGACVR [SLC25A39] | 2.67 ± 0.24 | 2.92 ± 0.16
LEAEKLVMFQRRYYKPGLLMMCFI [SCD] | 3.26 ± 0.91 | 2.8 ± 0.44
SQWKDPALSQLICFCRESRYMDQW [GADD45A] | 2.19 ± 0.19 | 2.31 ± 0.23
ARLRPGLAVLGADERIFSLTRRLA [HAGHL] | 2.47 ± 0.14 | 2.78 ± 0.27
LDSQTEIYQYVQNSMAPHPARDYV [DLC1] | 2.99 ± 0.42 | 3.09 ± 0.25
RHRQEVLCKEMVPLAEQTPLTLQS [ZSCAN9] | 4.31 ± 0.18 | 4.21 ± 0.077
YAIAGYDGNSLLSSIECYDPIIDS [KLHL12] | 2.83 ± 0.48 | 3.01 ± 0.36
RKRMGTRRGRHEQSPTSRPRKVSS [C22orf15] | 4.7 ± 0.25 | 4.59 ± 0.13
PPRIPQADQWKSSNKSLVEALGLE [RHOBTB1] | 4.45 ± 0.27 | 4.33 ± 0.26
SPTSGKFRRGSGSACSLLCCCGRD [MCOLN1] | 3.27 ± 0.15 | 3.56 ± 0.41

Sequence | protein stability index (treatment: DMSO) | protein stability index (treatment: MLN4924 1 uM, 8 h)
STFSTNYRSLGSVQAPSYGARPVS [KRT18] | 3.53 ± 0.16 | 3.61 ± 0.2
TEKSGKREFDVRQTPQVNINPFTP [WEE1] | 4.42 ± 0.25 | 4.25 ± 0.094
MAVALGCAIQASLNQGSVFQEYDT [ZNF449] | 3.91 ± 0.54 | 2.88 ± 1.2
IRNEQFAIRRFQSMPVRLLGHSPV [CDC25B] | 2.71 ± 0.4 | 2.71 ± 0.21
GYRVSAALEEADKMFLRTREPALD [EID1] | 3.9 ± 0.27 | 3.89 ± 0.3
VARCEVMAAMFNGNYMEAKSVLIP [RHOBTB3] | 2.16 ± 0.29 | 2.24 ± 0.17
TPYKPPAGRAAAPELSYRVCVGSD [MYORG] | 3.94 ± 0.24 | 4.13 ± 0.27
TFASLETVGIYFGLVYRIHSVLQG [TMEM40] | 3.59 ± 0.44 | 3.24 ± 0.23
SMISMGLFSIAPLIYGSMEMFPAA [JAGN1] | 3.08 ± 0.29 | 3.23 ± 0.32
FPGVVARPIGEFRSNADYQYQLLR [CNOT7] | 3.05 ± 0.3 | 2.97 ± 0.2
DIVDEDVKLMMSTLPKSLSLPTTA [MYBL2] | 3.9 ± 0.27 | 3.7 ± 0.27
ADIDHDQALAQAIKEAKEQHPDMS [EPB41L3] | 5.56 ± 0.17 | 5.51 ± 0.31
CICWSPFLVTMANIGINGNHSLET [PTGFR] | 2.82 ± 0.26 | 2.84 ± 0.73
LMRSQSPKAQPQTWKSGKQTMLSH [TRIM29] | 3.34 ± 0.33 | 3.6 ± 0.28
RNSGPVVEKLKQMQEFFGLKVTGK [MMP1] | 3.16 ± 0.079 | 3.14 ± 0.39
EKPYGCSECGKAFPRKSELTEHQR [ZNF649] | 3.95 ± 0.49 | 4.44 ± 0.52
GGGSGSAPGPSRIADYLLLPLAER [TRIB1] | 3.62 ± 0.48 | 
FRLTTLLMSGCSSELKNRMEYALN [PLK2] | 2.46 ± 0.53 | 2.35 ± 0.47
PNTYYEGGYFKARLKFPIDYPYSP [CDC34] | 2.32 ± 0.17 | 2.39 ± 0.21
NKKHGEAEKKKPKTQIVCKHFLEA [ZC3H15] | 4.09 ± 0.32 | 4.14 ± 0.31
NSGHTIFNDPFFIVETVCIVWFSF [KCNA4] | 3.49 ± 0.58 | 3.51 ± 0.31
STVKDCATIFALSTMTSSVQIYNL [ATL3] | 3.08 ± 0.68 | 3.25 ± 0.59
MHPKETTRQLSLAVKDGLIVETLT [ZMYND11] | 3.27 ± 0.28 | 3.36 ± 0.24

Sequence | protein stability index (treatment: DMSO) | protein stability index (treatment: MLN4924 1 uM, 8 h)
ESRKSKRRNSEFEIFVDCDINREQ [TPH1] | 4.85 ± 0.31 | 4.92 ± 0.59
EALAKWAEGRTGFPWIDAIMTQLR [CRY1] | 3 ± 0.085 | 2.73 ± 0.21
GRIACANVLSDLYAMGITECDNML [SEPHS2] | 2.4 ± 0.41 | 2.43 ± 0.32
GHNDWVMDVAISNNKKWILSASKD [WDR88] | 3.19 ± 0.33 | 3.22 ± 0.59
DEMCANNDFVQVDPGQVGLINSNV [FAN1] | 4.82 ± 0.2 | 4.78 ± 0.35
IIHEAGYSEEECKQYKAVVYSNTI [GNAI1] | 2.81 ± 0.04 | 2.77 ± 0.45
YFTQTLLPGLAGPSGEMVKSTTSL [MLH1] |  | 2.51 ± 0.21
AFPYQYPPPPHPYNPHPGFPELGY [DVL3] | 2.35 ± 0.31 | 2.5 ± 0.35
AMAYHHDSRRIFVGQDNGAVMEFH [WDFY1] | 3.08 ± 0.15 | 2.96 ± 0.32
LIQRWYRRYVARLEMRRRCTWSIF [PPEF2] | 2.43 ± 1.3 | 2.73 ± 0.57
SARDASPTPSTDAEYPANGSGADR [NCK2] | 5.51 ± 0.17 | 5.53 ± 0.25
ATTNACEKPIGSCVTNPCGPRSRC [KRT33B] | 3.92 ± 0.17 | 4.14 ± 0.23
LVAHQRYHTGKTPFVCPECGQPCS [ZNF649] | 3.62 ± 0.45 | 4.03 ± 0.51
IFLNGNRERPLNVFCDMETDGGGW [TNXB] | 1.91 ± 0.48 | 2.67 ± 0.54
LTRIRKWIEHSKLREINFKIVEFN [GLT8D2] | 2.48 ± 0.44 | 2.51 ± 0.39
NIDETCGRHHSQSTEVQAHPYSTT [TEKT4] | 4.62 ± 0.091 | 4.54 ± 0.07
LQSELAGVADFSATYLRCQLLLIK [INTS4] | 2.79 ± 0.46 | 2.57 ± 0.11
SYFDMLYPEDSSWAAKAPGASSRE [SPDEF] | 3.56 ± 0.13 | 3.52 ± 0.22
KSPDNEDSGDSKDIRLTLMEEVLL [GOLPH3L] | 3.82 ± 0.3 | 4.07 ± 0.19
GRQLEKVPEKRDSGMTEVERTYSA [SPATS1] | 5.22 ± 0.3 | 5.24 ± 0.4
LSQVELQAAPGALPVSSPEPPPAL [TRIM55] | 4.79 ± 0.14 | 4.69 ± 0.21
LESEGKNSKKEEPQELLQSQDFVG [ATE1] | 5.73 ± 0.27 | 5.54 ± 0.14
SKVVVPPLPGKAFLRQLPFRGDDG [SNX3] | 3.45 ± 0.17 | 3.56 ± 0.21

Sequence | protein stability index (treatment: DMSO) | protein stability index (treatment: MLN4924 1 uM, 8 h)
LLPLVTLCDGNPRRPSPVLRHLEL [SCNN1D] | 2.42 ± 0.42 | 2.27 ± 0.46
QGASESQAPGEENLLGEAAGGQDM [HDAC6] | 5.54 ± 0.22 | 5.45 ± 0.2
TPASQSPKKPPAKDPLADLNIKDF [SNAP91] | 5.06 ± 0.092 | 4.87 ± 0.25
PYFRAMFTGELAESRQTEVVIRDI [KLHL20] | 2.77 ± 0.25 | 3.09 ± 0.19
DQTSLLVVDKETDNMYRLAHFSPF [PDZK1] | 2.61 ± 0.32 | 2.75 ± 0.26
DNAPAVLHPRPDWEHSAPQRLPRS [PCDHGC5] | 4.72 ± 0.17 | 4.81 ± 0.17
SVIVLDINDNAPTFQSSVLRVGIP [PCDHGC5] | 2.18 ± 0.11 | 2.21 ± 0.081
KCKKKITGEIMHALKMTWHVHCFT [PDLIM7] | 2.81 ± 0.81 | 2.7 ± 0.12
HSCTCVLYTPSNEHFGIVPLEAMY [ALG2] | 2.43 ± 0.38 | 2.41 ± 0.22
YKDTCHELDELQLCKNCFYLSNAR [ZMYND11] | 2.66 ± 0.31 | 3.02 ± 0.25
LFRELWRYHFATGVWHQMGTDGYM [KLHDC10] | 3 ± 0.66 | 2.8 ± 0.47
IMPDGTIVTTVTTVQSRPRIDGKL [C2CD2L] | 3.31 ± 0.16 | 3.29 ± 0.39
FNGKGKKIRKPRTIYCSLQLQALN [DLX1] | 2.38 ± 0.5 | 2.75 ± 0.31
PFLLLFLGNFFTTLRVVHHKFHSQ [TMEM120A] | 3.28 ± 0.37 | 3.1 ± 0.22
ERDIEIGFLPWLMNEVEKTMEYSM [RSPH3] | 2.41 ± 0.46 | 2.42 ± 0.18
KLDLWSFLDIPRSRLVKYPLLLKE [NET1] | 2.21 ± 0.52 | 1.94 ± 0.47
CRFLLNSRVTDAAFNFLLVWYYCT [TMEM120A] | 2.85 ± 0.74 | 2.38 ± 0.48
GPWLEWEIMLQYCFPRLDINVSKG [PRIM1] | 2.4 ± 0.19 | 2.88 ± 0.94
NLGDALDSSNSMQTIQKTTTRRIV [KRT18] | 4.38 ± 0.19 | 4.51 ± 0.28
KTEITDLRRTMQELEIELQSQLSM [KRT15] | 3.79 ± 0.39 | 3.5 ± 0.24
NCVSSVYLYYDPDYSFLSLGVYSA [ATE1] | 3.23 ± 0.41 | 3.27 ± 0.11

Reference: the supplement of paper PMC10567573
